Ends that are not written are not given here.
Tests used:
[1] = molecular target: Ala mutant peptide (Ala at position 8 of …); assay: competition phage ELISA; Asp8 to Ala peptide as soluble competitor
[2] = molecular target: T1, unphosphorylated Thr peptide (Thr at position 8 of …); assay: competition phage ELISA; Asp8 to Thr peptide as soluble competitor
T1 sequence (chain, enzymatically biotinylated on the biotin acceptor peptide (BirA)): KGNYVVTTH

[3] = molecular target: Tyr mutant peptide (Tyr at position 8 of …); assay: competition phage ELISA; Asp8 to Tyr peptide as soluble competitor
[4] = molecular target: T2, unphosphorylated Ser peptide (Ser at position 8 of …) (also: fused to NusA, biotinylated on biotin acceptor peptide (BirA), N-terminal His6 tag); assay: competition phage ELISA; Asp8 to Ser peptide as soluble competitor
T2 construct: also called Ser/Thr (Ser member); not shown: N-terminal His6 tag and biotin acceptor peptide; NusA, fusion partner
T2 chain: KGNYVVTSH
From the text: Without being bound by theory, the carboxylate group of Asp8 residue might mimic a phosphorylated residue and thus, the Ab can bind peptides with pSer, pThr, or possibly pTyr in place of Asp8 (Table 5).
Various concentrations of Fab-phage were mixed with a fixed concentration of biotinylated peptide and captured on the NeutrAvidin-coated wells for fifteen minutes. The bound phage were then detected using a horseradish peroxidase (HRP)-conjugated anti-M13 monoclonal (GE Healthcare). For phage competition ELISAs, plates were coated with 10 μg/mL NusA-[…] (the native target for the 1i8i Fab and a weak binder to pSAb, pSTAb, and pYAb), and blocked with 2% BSA. Sub-saturating levels of phage were then pre-bound to the various peptide antigens for two hours at 20° C. and then captured on the NusA-peptide coated plates for fifteen minutes. […] Bound scFv-Fc were detected with HRP-conjugated Protein A (Pierce).

[5] = molecular target: T3, wild-type peptide KGNYVVTDH (NusA-KGNYVVTDH) (also: fused to NusA, biotinylated on biotin acceptor peptide (BirA), N-terminal His6 tag); assay: SPR (Biacore 4000); biotinylated antigen captured on NeutrAvidin CM5 chip, Fab in flow; 1:1 Langmuir fit
T3 construct: also called WT Asp; the native target for the 1i8i Fab; not shown: N-terminal His6 tag and biotin acceptor peptide; NusA, fusion partner
T3 chain: KGNYVVTDH
Experimental: Surface plasmon resonance data were measured on a Biacore model 4000 (Biacore, Uppsala, Sweden). All proteins were in TBS containing 0.1 mg/mL BSA and 0.01% Tween-20. A Biacore CM5 chip was coated with NeutrAvidin at 3000 RU and biotinylated antigens were captured at <100 RU.

B1: humanized Fab (humanized version of the mouse 1i8i Fab; parent scaffold, CDR H2 loop STGGYN) (Fab, V domains shown)
VH: EVQLVESGGGLVQPGGSLRLSCVTSGFTFRKFGMSWVRQAPGKGLEWVASISTGGYNTYYSDSVKGRFTISRDNSKNTLYLQMNSLRAEDTAVYYCTRGYSSTSYAMDYWGQGTLVTVSS
VL: DIVLTQSPATLSLSPGERATLSCMTSTDIDDDMNWYQQKPGQAPRLLISEGNTLRPGVPARFSGSGSGTDFTLTISSLEPEDFAVYYCLQSFNVPLTFGQGTKVEIKR
notes: also called parent Fab; humanized scaffold
fold less binding than to the wild-type Asp8 peptide [1]: > 100 fold
fold less binding than to the wild-type Asp8 peptide [2]: > 100 fold
fold less binding than to the wild-type Asp8 peptide [3]: > 100 fold
fold less binding than to the wild-type Asp8 peptide [4]: > 100 fold
Kd [5]: 9.6 nM
koff [5]: 0.0032 s⁻¹
kon [5]: 338000 M⁻¹ s⁻¹

From patent publication US20160003843A1 (published 2016)
